Reference: patent US20210317225A1 (Genmab, published 2021)

T1: Human CD137 shuffle 4 (amino acids 89-114 replaced by wild boar CD137) (human, amino acids 89-114 from wild boar, UniProt Q07011 24-255)
T1 construct: also called shuffle construct 4
T1 chain: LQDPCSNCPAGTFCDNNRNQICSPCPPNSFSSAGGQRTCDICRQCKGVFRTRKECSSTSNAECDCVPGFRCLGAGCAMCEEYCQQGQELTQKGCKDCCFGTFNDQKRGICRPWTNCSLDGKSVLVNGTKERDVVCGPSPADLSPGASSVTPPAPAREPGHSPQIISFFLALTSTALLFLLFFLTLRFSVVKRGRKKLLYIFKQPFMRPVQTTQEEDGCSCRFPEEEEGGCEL

T2: Human CD137 shuffle 1 (amino acids 162-186 replaced by wild boar CD137) (human, amino acids 162-186 from wild …, UniProt Q07011 24-255)
T2 construct: also called shuffle construct 1
T2 chain: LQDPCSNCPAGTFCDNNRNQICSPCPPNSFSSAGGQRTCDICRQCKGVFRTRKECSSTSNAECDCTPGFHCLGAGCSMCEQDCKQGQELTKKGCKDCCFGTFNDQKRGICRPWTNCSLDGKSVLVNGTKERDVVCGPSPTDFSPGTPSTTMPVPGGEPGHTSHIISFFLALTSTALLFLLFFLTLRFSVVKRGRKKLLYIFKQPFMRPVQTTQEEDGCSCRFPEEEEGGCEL

T3: Human CD137 shuffle 2 (amino acids 139-161 replaced by wild boar CD137) (human, amino acids 139-161 from wild …, UniProt Q07011 24-255)
T3 construct: also called shuffle construct 2
T3 chain: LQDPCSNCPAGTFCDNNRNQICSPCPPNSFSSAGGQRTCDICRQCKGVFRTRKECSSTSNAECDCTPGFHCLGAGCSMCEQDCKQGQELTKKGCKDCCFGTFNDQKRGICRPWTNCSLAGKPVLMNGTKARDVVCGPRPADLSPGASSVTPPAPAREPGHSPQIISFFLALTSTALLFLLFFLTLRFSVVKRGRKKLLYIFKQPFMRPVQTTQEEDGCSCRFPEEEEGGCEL

T4: Human CD137 shuffle 3 (amino acids 115-138 replaced by wild boar CD137) (human, amino acids 115-138 from wild …, UniProt Q07011 24-255)
T4 construct: also called shuffle construct 3
T4 chain: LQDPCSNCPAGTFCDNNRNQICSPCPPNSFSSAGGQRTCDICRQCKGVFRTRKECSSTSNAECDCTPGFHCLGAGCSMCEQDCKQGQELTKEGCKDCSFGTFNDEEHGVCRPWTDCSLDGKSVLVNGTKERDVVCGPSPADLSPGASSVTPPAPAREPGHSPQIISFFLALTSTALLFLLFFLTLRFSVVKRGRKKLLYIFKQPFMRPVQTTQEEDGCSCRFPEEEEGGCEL

T5: Human CD137 shuffle 5 (amino acids 48-88 replaced by African elephant CD137) (human, amino acids 48-88 from African …, UniProt Q07011 24-255)
T5 construct: also called shuffle construct 5
T5 chain: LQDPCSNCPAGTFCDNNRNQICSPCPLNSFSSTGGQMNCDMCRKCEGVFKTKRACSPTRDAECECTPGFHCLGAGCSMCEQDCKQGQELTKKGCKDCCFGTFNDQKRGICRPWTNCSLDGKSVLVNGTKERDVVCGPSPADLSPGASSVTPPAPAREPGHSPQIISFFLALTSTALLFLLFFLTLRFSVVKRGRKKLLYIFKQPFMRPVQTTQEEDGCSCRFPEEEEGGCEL


How the values were obtained:
[1] = biological target: T6, Human CD137 (TNR9_Human) (human, UniProt Q07011 24-255); assay: flow cytometry, HEK293-T17 cells transiently transfected with human CD137, antibody at 1 µg/mL, APC-labeled F(ab')2 secondary [cont.]
T6 construct: Full-length human CD137 expressed on HEK293T-17, NF-kB/293/GFP-Luc or K562 cells, or native on T cells; also called hCD137 wt; 4-1BB
Procedure: (§1) FIG. 4: Binding of CD137 antibody clones to CD137 shuffle constructs expressed on HEK293-T17 cells. HEK293-T17 cells were transfected with the CD137 shuffle constructs, and with human CD137 (hCD137 wt), African elephant of wild boar CD137, as indicated. Binding of the different CD137 antibody clones to these constructs expressed on HEK293-T17 cells was measured by flow cytometry. Staining with polyclonal anti-CD137 antibody is shown as a control.
(§2) 3×10⁶ HEK293T-17 cells were seeded in T75 culture flasks (Greiner Bio-One, cat. no. 658175) in 20 mL RPMI 1640 GlutaMAX medium containing 10% FCS (Biochrom, cat. no. S 0115). After O/N incubation, cells were transiently […] with expression vectors encoding the shuffle constructs or the wild boar, African elephant or human CD137 downstream of a constitutively active human elongation factor-1 alpha (EF-1 alpha) promotor using TransIT®-LT1 Transfection Reagent, Mirus Bio (VWR International, cat. no. 731-0029), according to the manufacturer's instructions. The next day, cells were harvested using 1.5 mL Accutase (Sigma Aldrich, cat. no. A6964) (incubation at 37° C. for 5 min.) and flow cytometry was performed, essentially as described in Example 4, to measure surface expression of the shuffle constructs and the human, African elephant and wild boar CD137 and to measure binding of the antibody clones to the different shuffle constructs. To measure cell surface expression of the constructs, transduced cells were incubated with 1 μg/mL goat polyclonal anti-human CD137 (R&D Systems, cat. no. AF838) in FACS buffer (D-PBS supplemented with 5 mM EDTA [Sigma Aldrich, cat. no. 03690] and 5% (v/v) fetal bovine serum [FBS, Biochrom, cat. no. S 0115]) (4° C., 20 min.), followed by incubation with APC-labeled anti-goat IgG (H+L) (R&D Systems, cat. no. F0108) (4° C., 20 min.). Binding of the different CD137 antibody clones to cells expressing the shuffle constructs was measured by incubation of the transduced cells with 1 μg/mL of the antibody clones, followed by APC-labeled AffiniPure F(ab′)2 Fragment (1:50 final dilution; Jackson, cat. no. 109-136-127).

[2] = biological target: T1, Human CD137 shuffle 4 (amino acids …); assay: flow cytometry on transfected HEK293T-17 cells
Procedure: as §2

[3] = biological target: T2, Human CD137 shuffle 1 (amino acids …); assay: flow cytometry on transfected HEK293T-17 cells, 1 µg/mL antibody
Procedure: as §2

[4] = biological target: T3, Human CD137 shuffle 2 (amino acids …); assay: as above
Procedure: as §2

[5] = biological target: T4, Human CD137 shuffle 3 (amino acids …); assay: as above
Procedure: as §2

[6] = biological target: T5, Human CD137 shuffle 5 (amino acids …); assay: as above
Procedure: as §2

[7] = biological target: T6, Human CD137 (TNR9_Human); assay: flow cytometry, HEK293-T17 cells transiently transfected with human CD137, antibody at 1 µg/mL, APC-labeled F(ab')2 secondary
Procedure: as §1, §2
Target sequence in this assay (Q07011 24-255): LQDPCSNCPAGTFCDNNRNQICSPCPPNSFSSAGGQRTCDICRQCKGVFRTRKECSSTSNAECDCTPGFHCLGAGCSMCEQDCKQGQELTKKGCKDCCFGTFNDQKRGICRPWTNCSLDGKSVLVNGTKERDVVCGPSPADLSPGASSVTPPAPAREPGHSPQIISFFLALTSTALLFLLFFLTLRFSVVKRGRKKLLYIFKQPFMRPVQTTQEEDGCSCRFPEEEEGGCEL

[8] = biological target: T1, Human CD137 shuffle 4 (amino acids …); assay: flow cytometry on transfected HEK293T-17 cells, 1 µg/mL antibody
Procedure: as §2

[9] = biological target: T5, Human CD137 shuffle 5 (amino acids …); assay: flow cytometry on transfected HEK293T-17 cells
Procedure: as §2

Binder	binding result [1]	binding result [2]	binding result [3]	binding result [4]	binding result [5]	binding result [6]	binding result [7]	binding result [8]	binding result [9]
CD137 antibody clone 008 (rabbit) (antibody, human IgG1, kappa, V domains shown, also called Clone 8; CD137 clone 008) VH: QSLEESGGRLVTPGTPLTLTCTASGFSLSSYDMSWVRQAPGKGLEYIGYISSSGNTYYASWAKSRFTISKTSTTVDLKITSPTTEDTATYFCAREGDYWDFNLWGPGTLVTVSS VL: AQVLTQTPSSVSAAVGGTVTINCQASQSISNLLAWYQQKPGQRPRLLIYRASTLASGVPSRFKGSGSGTEFTLTISDLESEDAATYYCAGGFPGLDTGATFGGGTEAVVTR	binds	no binding (tested: 1 µg/mL)	binds	binds	binds	binds	–	–	–
CD137 antibody clone 003 (rabbit) (antibody, human IgG1, kappa, V domains shown, also called Clone 3; CD137 clone 003) VH: QSVEESGGRLVTPGTPLTLTCTASGFTISSYHMIWVRQAPGEGLEWIGDIYGGTATTDYASWAKGRFTISKTSTTVDLKMTSLTTEDTATYFCARARYSGGSYANYVFNLWGQGTLVTVSS VL: DIVMTQTPASVEAAVGGTVTIKCQASQSISSYLAWYQQKPGQPPKLLIYRTSTLESGVPSRFKGSGSGTEFTLTISDLESADAATYYCQGYDWSSSNRYDNTFGGGTEVVVKR	–	no binding (tested: 1 µg/mL)	binds	binds	binds	binds	binds	–	–
CD137 antibody clone 007 (rabbit) (antibody, human IgG1, kappa, V domains shown, also called Clone 7; CD137 clone 007) VH: QSLEESGGRLVTPGTPLTLTCTASGFSLSSYDVSWVRQAPGKGLEYIGFIGSDGSAHYATWVKGRFTISKTSTTVDLKITSPTTEDTATYFCARDWNDYWAHDLWGPGTLVTVSS VL: AQVLTQTTSPVSAAVGGTVTINCQASQIVTSKSALSWYQQKPGQPPRLLIYKASTLASGVPSRFSGSGSGTQFTLTISDLESDDAATYYCAGGYYNSGDLNPFGGGTEVVVKR	binds	no binding (tested: 1 µg/mL)	binds	binds	binds	binds	–	–	–
CD137 antibody clone 010 (rabbit) (antibody, human IgG1, kappa, V domains shown, also called Clone 10; CD137 clone 010) VH: QSVEESGGRLVTPGTPLTLTCTVSGFSLSTYAMIWVRQAPGKGLEWIGVVYDNGYISHATWVKGRFTISKTSTTVGLEITSPTTEDTATYFCARSADGSWSTYFNLWGQGTLVTVSS VL: DIVMTQTPASVEAAVGGTVTIKCQASESISNYLAWYQQKPGQPPKLLIYKASTLASGVSSRFKGSGSGTEFTLTISDLESADAATYYCQTNYCCSSSDNGFAFGGGTEVVVKR	binds	–	binds	binds	binds	–	–	binds	no binding (tested: 1 µg/mL)
CD137 antibody clone 006 (rabbit) (antibody, human IgG1, kappa, V domains shown, also called Clone 6; CD137 clone 006) VH: QSVEESGGRLVTPGTPLTLTCTVSGFSLSSYAMSWVRQAPGKGLEWIGIISTSGITYYASWAKGRFTISKTSTMVDLKITSPTTEDTATYFCARLNGFDDYVRYFDFWGLGTLVTVSS VL: AIELTQTPSSVSAAVGGTVTINCQASESIASNLAWYQQKPGQPPKLLIYAASYLASGVPSRFKGSGSGTEYTLTISGVQSADAATYYCQSAFYVSSSDNAFGGGTEVVVKR	–	–	binds	binds	binds	–	binds	binds	no binding (tested: 1 µg/mL)

Results, then the binder that gave them:

binding result [1]	binding result [2]	binding result [3]	binding result [4]	binding result [5]	binding result [6]	binding result [7]	binding result [8]	binding result [9]	Binder
binds	–	binds	binds	binds	binds	–	binds	–	CD137 antibody clone 012 (rabbit) (antibody, human IgG1, kappa, V domains shown, also called Clone 12; CD137 clone 012) VH: QSVEESGGRLVTPGTPLTLTCTVSGFSLSDYYMTWVRQAPGKGLEYIGIMSGSGSTYYASWAKGRFTISKTSSTTLELKITSPTTEDTAIYFCARDGDYAGWGYATGAFDPWGPGTLVTVSS VL: AAVLTQTPSPVSAAVGGTVTISCQASQSVVGNSLLSWFQKKPGQPPKLLIYSASSLASGVPSRFKGSGSGTQFTLTISDLESDDAATYYCTGRYNSDTDTFVFGGGTEVVVKR
–	–	binds	binds	binds	–	binds	binds	no binding (tested: 1 µg/mL)	CD137 antibody clone 002 (rabbit) (antibody, human IgG1, kappa, V domains shown, also called Clone 2; CD137 clone 002) VH: QSVEESGGRLVTPGTPLTLTCTVSGFSLTYYAVTWVRQPPGKGLEWIGVIYDNGATAFATWAKGRFTMSKNSTTVALKVTSPTTEDTATYFCARSANNAWSTYSNLWGQGTLVTVSS VL: DIVMTQTPSSVSAAVGGTVTINCQASEDISSYLSWYQQKLGQPPKLLIYKASTLESGVPSRFKGSGSGTEYTLTISDLESDDAATYYCQSYYSGSISGYGFVFGGGTGVVVKR
